PMC4072508, “Genome-Wide Prediction and Validation of Peptides That Bind Human Prosurvival Bcl-2 Proteins” (PLoS Computational Biology, 2014)
Values joined by “and” are separate entries in the source; they are usually repeats but may differ in a detail not shown here. Identical values can stand only once. Residues, ends and D or L forms follow the SMILES beside them. *: point of attachment. 5FAM = O=C1OC2(c3ccc(O)cc3Oc3cc(O)ccc32)c2ccc(C(=O)*)cc21

Assays:
[1] = biological target: T1, Mcl-1 (Homo sapiens, UniProt Q07820); experiment: LUMIER full-length protein interaction; assay type: binding; conditions: LUMIER results for Mcl-1, Z-score relative to Gaussian fit of the data; for z-score 1.2: experiment 1, duplicate 2; for z-score 2.1: experiment 2, duplicate 1; for z-score 2.2: experiment 2, duplicate 2
T1 construct: myc-Mcl-1 SPOT array & FP; made in house
T1 sequence (Q07820 with tags, fused parts or gaps): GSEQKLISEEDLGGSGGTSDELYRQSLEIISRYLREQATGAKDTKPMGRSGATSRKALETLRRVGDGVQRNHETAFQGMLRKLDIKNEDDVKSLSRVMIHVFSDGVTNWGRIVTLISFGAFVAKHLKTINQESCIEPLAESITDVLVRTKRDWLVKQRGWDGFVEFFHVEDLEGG
Description: (§1) The LUMIER assay was carried out as previously described with the following modifications. A stable cell line expressing receptor tagged on the N-terminus with Nanoluc luciferase was created (the prey). […] Each bait construct was transfected into the receptor-luciferase cells in a 96-well format and after 48 hours the cells were lysed and transferred to 384-well plates coated with anti-FLAG. After incubation and washing, luminescence was measured to quantify how much receptor-luciferase was captured by the bait protein. Anti-Flag ELISA signal was used to exclude bait proteins that were not expressed. The experiment was carried out two times, each in duplicate.

[2] = biological target: T2, Bcl-xL (Homo sapiens, UniProt Q07817); experiment: LUMIER full-length protein interaction; assay type: binding; conditions: LUMIER results for Bcl-xL; for z-score 1.1: experiment 1, duplicate 1; for z-score 1.2: experiment 1, duplicate 2; for z-score 2.1: experiment 2, duplicate 1; for z-score 2.2: experiment 2, duplicate 2
T2 construct: myc-Bcl-xL SPOT array & FP; made in house
T2 sequence (Q07817 with tags, fused parts or gaps): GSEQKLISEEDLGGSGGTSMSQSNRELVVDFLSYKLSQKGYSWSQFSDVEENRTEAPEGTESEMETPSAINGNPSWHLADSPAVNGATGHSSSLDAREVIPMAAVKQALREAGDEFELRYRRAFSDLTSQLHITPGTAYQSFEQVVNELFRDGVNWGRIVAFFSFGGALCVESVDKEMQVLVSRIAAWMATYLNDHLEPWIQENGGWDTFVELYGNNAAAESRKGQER
Description: as §1

[3] = Z-score relative to Gaussian fit of the data
[4] = Z-score of the interaction relative to the Gaussian fit of the data

| z-score 1.2 [1] | z-score 2.1 [1] | z-score 2.2 [1] | z-score 1.1 [2, 3] | z-score 1.2 [2, 3] | z-score 2.1 [2, 3] | z-score 2.2 [2, 3] | z-score 1.1 [2, 4] | z-score 1.2 [2, 4] | z-score 2.1 [2, 4] | z-score 2.2 [2, 4] | Molecule |
| --- | --- | --- | --- | --- | --- | --- | --- | --- | --- | --- | --- |
| -0.6598 | 0.132 | -0.2801 | -0.3372 | -0.9542 | 2.574 | 0.6781 | – | – | – | – | CC[C@H](C)[C@H](NC(=O)[C@@H]1CCCN1C(=O)[C@H](CCCNC(=N)N)NC(=O)[C@H](CCCNC(=N)N)NC(=O)[C@@H]1CCCN1C(=O)[C@H](CC(N)=O)NC(=O)[C@H](C)NC(=O)[C@H](CC(C)C)NC(=O)[C@H](CCSC)NC(=O)[C@H](CC(=O)O)NC(=O)[C@H](CO)NC(=O)[C@H](Cc1c[nH]c2ccccc12)NC(=O)[C@H](Cc1c[nH]cn1)NC(=O)[C@H](CCCNC(=N)N)NC(=O)[C@H](CC(C)C)NC(=O)[C@H](CCC(=O)O)NC(=O)[C@H](C)NC(=O)CNC(=O)[C@@H](NC(=O)[C@H](CO)NC(=O)[C@H](CC(N)=O)NC(=O)[C@H](Cc1ccc(O)cc1)NC(=O)CNC(=O)[C@@H](NC(=O)[C@H](Cc1ccccc1)NC(=O)c1ccc2c(c1)C(=O)OC21c2ccc(O)cc2Oc2cc(O)ccc21)C(C)C)[C@@H](C)O)C(=O)N[C@@H](C)C(N)=O [SYT1] (5FAM-FVGYNSTGAELRHWSDMLANPRRPIA-NH2) |
| 0.7914 | 1.721 | 2.179 | 2.487 | -0.8795 | 0.2924 | 1.441 | – | – | – | – | ACN9 (LQLHRVLPPDLKSLGDQYVKDEFRRH) |
| 0.9409 and 0.8269 | 2.599 and 2.298 | 1.567 and 1.468 | – | – | 1.607 and 2.423 | – | – | – | – | – | ATP6AP2 (RDASKILVDALQKFADDMYSLYGGNA) |
| 6.48 | 5.961 | 6.848 | – | – | – | – | 0.8883 | 2.921 | 1.064 | 1.82 | BAK1 (SSTMGQVGRQLAIIGDDINRRYDSEF) |
| – | 0.6411 and 1.2239 | – | 1.141 and 1.702 | – | – | – | – | – | – | – | BBS10 (RMIVDCVSSHLKKTGDGAKTFIIFLC) |
| 9.774 | 11.6048 | 12.4336 | – | – | – | – | – | – | – | – | BCL2L11 (MRPEIWIAQELRRIGDEFNAYYARRV) |
| 0.6167 | 1.59 | 1.598 | 0.6785 | 0.5183 | 0.5393 | 0.7734 | – | – | – | – | C7orf26 (FDHMVPLVEEINRLADELNPLNASQE) |
| -0.8504 | -0.06643 | -0.03009 | 0.03556 | -1.065 | 0.3161 | -0.06353 | – | – | – | – | CASP8 (PFKKMDFSRNLYDIGEQLDSEDLASL) |
| 0.8015 | 1.282 | 1.811 | – | – | – | – | 2.807 | 1.916 | 0.2364 | 0.8316 | CCDC57 (QAGPVSSGLALRKLGDRVQLLNLLVT) |
| – | 1.806 | 2.677 | 1.515 | -1.523 | 1.61 | 2.141 | – | – | – | – | COL2A1 (VLLTLLVAAVLRCQGQDVQEAGSCVQ) |
| -0.01526 | 0.02916 | -0.562 | -0.437 | -1.625 | 0.4619 | – | – | – | – | – | CTSL2 (SQGKHGFTMAMNAFGDMTNEEFRQMM) |
| 0.6104 | -0.8677 | -1.447 | 0.3673 | -1.779 | 0.009756 | -0.6661 | – | – | – | – | CYBB (APEEDFFSIHIRIVGDWTEGLFNACG) |
| -0.6263 | -0.8736 | -1.0005 | -0.01422 | -0.04633 | -0.5606 | -0.592 | – | – | – | – | CYP2A6 (MPYMEAVIHEIQRFGDVIPMSLARRV) |
| 0.1736 | 1.579 | 0.3173 | 5.589 | 0.08513 | 1.44 | 1.097 | – | – | – | – | DHX30 (PVESSWIAPELRLQSDDILPLGKDSG) |
| 0.1193 | -0.01021 | -0.07055 | 4.341 | 0.09731 | 0.3964 | 0.9401 | – | – | – | – | DPF3 (SCMATVIHNPLKALGDQFYKEAIEHC) |
| -0.5012 | 0.1019 | 0.2829 | -1.115 | 0.4795 | -0.01103 | -0.4978 | – | – | – | – | DSN1 (RAKASSLSEELKHFADGLETDGTLQK) |
| 0.5092 | 0.307 | 0.2898 | 0.7197 | 0.5899 | 1.027 | -0.02772 | – | – | – | – | DZIP3 (NGGLLEFHKSLQEIGDKNDHWFDIDP) |
| -0.5001 | 0.001659 | -1.314 | 0.7648 | -1.829 | – | -0.5885 | – | – | – | – | EXOC4 (MQTLSELAKSFQDMADRCLLVLHLEV) |
| 0.7662 | 0.7867 | – | -1.0584 | -0.5034 | 0.7016 | 0.6909 | – | – | – | – | FADD (APGEEDLCAAFNVICDNVGKDWRRLA) |
| -0.6557 | -0.4574 | -0.175 | -0.4003 | -1.2734 | 2.098 | 0.0146 | – | – | – | – | FBXL3 (CHGLRELALNYHLLSDELLLALSSEK) |
| – | – | – | – | – | 1.152 and 2.217 | – | – | – | – | – | FBXW5 (LTETSLISGNLHRIGDITSCSVLWLN) |
| 0.03188 | – | -0.4966 | 4.354 | -0.599 | 1.203 | 1.501 | – | – | – | – | FOXI1 (PDKRLTLSQIYQYVADNFPFYNKSKA) |
| -0.4768 | -0.1664 | -0.7985 | -1.728 | -2.609 | 2.234 | -0.644 | – | – | – | – | FUT8 (KKLKNLEGNELQRHADEFLLDLGHHE) |
| 0.7158 | -0.81 | -1.083 | 0.2217 | -0.6971 | -0.4961 | -0.5692 | – | – | – | – | GBP6 (NDDTPWIARTLDNLADELTAILSAPA) |
| -0.6103 | -1.0129 | -1.44 | -0.9348 | -0.7792 | -0.04647 | -0.8049 | – | – | – | – | HEXDC (VLELHPGAQRLHIGCDEVYYLGEGEA) |
| 1.584 | 1.802 | 1.866 | 8.932 | -0.8907 | 0.7008 | 0.6709 | – | – | – | – | IPO5 (SEIMHSFAKCIEVMGDGCLNNEHFEE) |
